Earlier results on one substance are cited in paper PMC5167704.

This series deals with C4BP SCR6-8 (Homo sapiens) (UniProt P04003).
Chain of UniProt P04003 (P04003 363-540): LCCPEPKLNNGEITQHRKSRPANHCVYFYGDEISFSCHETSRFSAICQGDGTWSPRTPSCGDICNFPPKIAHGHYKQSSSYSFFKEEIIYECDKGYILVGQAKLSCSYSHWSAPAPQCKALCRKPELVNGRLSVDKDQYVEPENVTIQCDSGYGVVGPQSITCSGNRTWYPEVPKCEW

With Ail (from UniProt Q56957), the Kd is 0.76 nM.

One may read the Kd as the concentration at which binding is half-saturated.
